These are literature values, as cited in PMC5689411.

For the series, the target named is RNR beta2 (Escherichia coli) (UniProt P69924). Description: competitive inhibition assay.
Chain of UniProt P69924 (P69924 2-376): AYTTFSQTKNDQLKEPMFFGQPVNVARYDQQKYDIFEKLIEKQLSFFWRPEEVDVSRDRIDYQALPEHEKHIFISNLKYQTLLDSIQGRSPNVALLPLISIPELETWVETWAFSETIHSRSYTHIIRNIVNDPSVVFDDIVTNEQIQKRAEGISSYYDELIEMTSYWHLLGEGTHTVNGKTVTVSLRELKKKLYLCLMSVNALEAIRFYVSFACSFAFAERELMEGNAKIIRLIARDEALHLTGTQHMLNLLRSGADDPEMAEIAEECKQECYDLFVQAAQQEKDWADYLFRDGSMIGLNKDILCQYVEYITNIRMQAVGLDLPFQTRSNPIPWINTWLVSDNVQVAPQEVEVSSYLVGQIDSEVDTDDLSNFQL

Take RNR alpha2 (from UniProt P00452): the Kd was 180 nM.

One may read the Kd as a measure of binding affinity in units of concentration.
